Legend:
Experiment in all cases: cell-based or functional assay
[1] = target: HIV-1 Env of pseudovirus THRO4156.18 (HIV-1)
[2] = target: HIV-1 Env of pseudovirus T250-4 (HIV-1)
[3] = target: HIV-1 Env of pseudovirus 6540.v4.c1 (HIV-1)
[4] = target: HIV-1 Env of pseudovirus T251-18 (HIV-1)
[5] = target: HIV-1 Env of pseudovirus 7030102001E5(Rev-) (HIV-1)
[6] = target: HIV-1 Env of pseudovirus 3301.v1.c24 (HIV-1)
[7] = target: HIV-1 Env of pseudovirus 0815.v3.c3 (HIV-1)
[8] = target: HIV-1 Env of pseudovirus T257-31 (HIV-1)
[9] = target: HIV-1 Env of pseudovirus X2088_c9 (HIV-1)
[10] = target: HIV-1 Env of pseudovirus 1056_10_TA11_1826 (HIV-1)
[11] = target: HIV-1 Env of pseudovirus X2131_C1_B5 (HIV-1)
[12] = target: HIV-1 Env of pseudovirus CNE5 (HIV-1)
[13] = target: HIV-1 Env of pseudovirus T255-34 (HIV-1)
[14] = target: HIV-1 Env of pseudovirus Ce0682_E4 (HIV-1)
[15] = target: HIV-1 Env of pseudovirus CNE52 (HIV-1)
[16] = target: HIV-1 Env of pseudovirus Q461.e2 (HIV-1)
[17] = target: HIV-1 Env of pseudovirus WITO4160.33 (HIV-1)
[18] = target: HIV-1 Env of pseudovirus Du172.17 (HIV-1)
[19] = target: HIV-1 Env of pseudovirus 6811.v7.c18 (HIV-1)
[20] = target: HIV-1 Env of pseudovirus AC10.0.29 (HIV-1)
[21] = target: HIV-1 Env of pseudovirus 191084 B7-19 (HIV-1)
[22] = target: HIV-1 Env of pseudovirus CNE20 (HIV-1)
[23] = target: HIV-1 Env of pseudovirus ZM214M.PL15 (HIV-1)
[24] = target: HIV-1 Env of pseudovirus Ce2060_G9 (HIV-1)
[25] = target: HIV-1 Env of pseudovirus TRJO4551.58 (HIV-1)
[26] = target: HIV-1 Env of pseudovirus 928-28 (HIV-1)
[27] = target: HIV-1 Env of pseudovirus ZM197M.PB7 (HIV-1)
[28] = target: HIV-1 Env of pseudovirus ZM249M.PL1 (HIV-1)
[29] = target: HIV-1 Env of pseudovirus CNE21 (HIV-1)
[30] = target: HIV-1 Env of pseudovirus 9004SS_A3_4 (HIV-1)
[31] = target: HIV-1 Env of pseudovirus CAP210.2.00.E8 (HIV-1)
[32] = target: HIV-1 Env of pseudovirus X1193_c1 (HIV-1)
[33] = target: HIV-1 Env of pseudovirus 246F C1G (HIV-1)
[34] = target: HIV-1 Env of pseudovirus C2101.c01 (HIV-1)
[35] = target: HIV-1 Env of pseudovirus Ce0393_C3 (HIV-1)
[36] = target: HIV-1 Env of pseudovirus ZM135M.PL10a (HIV-1)
[37] = target: HIV-1 Env of pseudovirus Ce704809221_1B3 (HIV-1)

VRC07 (antibody)
neutralization IC50 [1]: 2.4 µg/mL | neutralization IC80 [1]: 12.2 µg/mL | IC50, titer in TZM.bl cells [2]: > 50 µg/mL | IC80, titer in TZM.bl cells [2]: > 50 µg/mL | IC50, titer in TZM.bl cells [3]: > 50 µg/mL | IC80, titer in TZM.bl cells [3]: > 50 µg/mL | IC50, titer in TZM.bl cells [4]: 1.32 µg/mL | IC80, titer in TZM.bl cells [4]: 6.49 µg/mL | neutralization IC50 [5]: 0.205 µg/mL | neutralization IC80 [5]: 0.911 µg/mL | IC50, titer in TZM.bl cells [6]: 0.027 µg/mL | IC80, titer in TZM.bl cells [6]: 0.073 µg/mL | IC50, titer in TZM.bl cells [7]: 0.015 µg/mL | IC80, titer in TZM.bl cells [7]: 0.051 µg/mL | neutralization IC50 [8]: 0.421 µg/mL | neutralization IC80 [8]: 3.17 µg/mL | IC50, titer in TZM.bl cells [9]: > 50 µg/mL | IC80, titer in TZM.bl cells [9]: > 50 µg/mL | neutralization IC50 [10]: 0.239 µg/mL | neutralization IC80 [10]: 1.11 µg/mL | IC50, titer in TZM.bl cells [11]: 0.219 µg/mL | IC80, titer in TZM.bl cells [11]: 1.03 µg/mL | IC50, titer in TZM.bl cells [12]: 0.138 µg/mL | IC80, titer in TZM.bl cells [12]: 0.524 µg/mL | IC50, titer in TZM.bl cells [13]: 0.227 µg/mL | IC80, titer in TZM.bl cells [13]: 0.987 µg/mL | neutralization IC50 [14]: 0.039 µg/mL | neutralization IC80 [14]: 0.239 µg/mL | neutralization IC50 [15]: 0.042 µg/mL | neutralization IC80 [15]: 0.142 µg/mL | neutralization IC50 [16]: 0.282 µg/mL | neutralization IC80 [16]: 1.02 µg/mL | neutralization IC50 [17]: 0.042 µg/mL | neutralization IC80 [17]: 0.193 µg/mL | neutralization IC50 [18]: 0.796 µg/mL | neutralization IC80 [18]: 3.66 µg/mL | IC50, titer in TZM.bl cells [19]: 0.093 µg/mL | IC80, titer in TZM.bl cells [19]: 0.435 µg/mL | neutralization IC50 [20]: 0.282 µg/mL | neutralization IC80 [20]: 0.986 µg/mL | neutralization IC50 [21]: 0.061 µg/mL | neutralization IC80 [21]: 0.209 µg/mL | neutralization IC50 [22]: 0.06 µg/mL | neutralization IC80 [22]: 0.129 µg/mL | neutralization IC50 [23]: 0.198 µg/mL | neutralization IC80 [23]: 1.42 µg/mL | neutralization IC50 [24]: 0.085 µg/mL | neutralization IC80 [24]: 0.422 µg/mL | neutralization IC50 [25]: 0.032 µg/mL | neutralization IC80 [25]: 0.125 µg/mL | neutralization IC50 [26]: 0.278 µg/mL | neutralization IC80 [26]: 0.957 µg/mL | neutralization IC50 [27]: 0.307 µg/mL | neutralization IC80 [27]: 1.27 µg/mL | neutralization IC50 [28]: 0.041 µg/mL | neutralization IC80 [28]: 0.145 µg/mL | neutralization IC50 [29]: 0.05 µg/mL | neutralization IC80 [29]: 0.222 µg/mL | neutralization IC50 [30]: 0.218 µg/mL | neutralization IC80 [30]: 0.75 µg/mL | neutralization IC50 [31]: > 50 µg/mL | neutralization IC80 [31]: > 50 µg/mL | IC50, titer in TZM.bl cells [32]: 0.037 µg/mL | IC80, titer in TZM.bl cells [32]: 0.249 µg/mL | neutralization IC50 [33]: 0.286 µg/mL | neutralization IC80 [33]: 1.04 µg/mL | IC50, titer in TZM.bl cells [34]: 0.238 µg/mL | IC80, titer in TZM.bl cells [34]: 1.4 µg/mL | neutralization IC50 [35]: 0.182 µg/mL | neutralization IC80 [35]: 0.634 µg/mL | neutralization IC50 [36]: 0.104 µg/mL | neutralization IC80 [36]: 0.383 µg/mL | neutralization IC50 [37]: 0.273 µg/mL | neutralization IC80 [37]: 1.14 µg/mL

From patent publication US20230002480A1
